# According to patent publication US20190276496A1 (FUNDACI N PARA LA INVESTIGACI N M DICA APLICADA, published 2019):
# [ ]: non-standard residue; d: D form.
# T1: Foxp3 in murine CD25+ Treg cells (mouse, UniProt Q99JB6 1-417)
# T1 sequence (looked up): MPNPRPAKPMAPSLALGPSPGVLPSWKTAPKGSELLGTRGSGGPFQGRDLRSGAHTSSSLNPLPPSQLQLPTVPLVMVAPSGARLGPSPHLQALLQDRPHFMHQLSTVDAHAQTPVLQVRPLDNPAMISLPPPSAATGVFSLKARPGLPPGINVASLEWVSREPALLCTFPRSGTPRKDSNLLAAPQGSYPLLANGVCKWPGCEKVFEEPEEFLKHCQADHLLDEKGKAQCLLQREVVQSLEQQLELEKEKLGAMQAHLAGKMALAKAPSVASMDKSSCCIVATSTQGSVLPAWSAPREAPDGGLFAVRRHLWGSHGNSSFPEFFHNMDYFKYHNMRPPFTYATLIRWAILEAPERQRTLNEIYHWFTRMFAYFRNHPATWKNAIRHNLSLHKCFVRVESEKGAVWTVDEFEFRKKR
# Molecular target: T1, Foxp3 in murine CD25+ Treg cells
# Assay: cell-based or functional assay
row,"IC50 (µM) of inhibition of Treg activity, in vitro Treg suppression assay (murine Tconv + Treg, anti-CD3, [3H]-thymidine) [µM]",Binder
1,1.9,Ac-GRAFQAFRKMWPFFAM-NH2 [peptide of SEQ ID NO: 41]
2,12.5,Ac-GRAFQSFRKMWPFFAM-NH2 [peptide of SEQ ID NO: 13]

# Molecular target: human FOXP3 tagged with 6 histidines at the C terminus (human) (UniProt Q9BZS1)
# Sequence (Q9BZS1 other isoform, or with tags, fused parts or gaps): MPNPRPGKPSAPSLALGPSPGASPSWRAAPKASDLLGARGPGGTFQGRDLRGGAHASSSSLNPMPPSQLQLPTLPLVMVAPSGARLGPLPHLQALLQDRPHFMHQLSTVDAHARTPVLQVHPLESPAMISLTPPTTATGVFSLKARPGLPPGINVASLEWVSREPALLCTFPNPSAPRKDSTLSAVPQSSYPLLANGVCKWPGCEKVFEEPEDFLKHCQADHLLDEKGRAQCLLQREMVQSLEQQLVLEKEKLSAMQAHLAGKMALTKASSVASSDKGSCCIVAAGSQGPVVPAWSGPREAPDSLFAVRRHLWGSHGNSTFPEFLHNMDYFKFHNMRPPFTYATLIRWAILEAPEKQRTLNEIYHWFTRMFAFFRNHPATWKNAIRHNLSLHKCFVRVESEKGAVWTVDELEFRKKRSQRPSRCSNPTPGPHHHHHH
# Assay: SPR (ProteOn XPR36), FOXP3-6His immobilized on GLM chip, peptide 1-20 µM injected; ratio to p60 (SEQ ID NO: 1)
row,Ratio binding Peptide/p60 (fold change),Binder
1,3.7,RDWQSFRKMWPFFAM [peptide of SEQ ID NO: 16]
2,1.4,RDFQSFRKMWNFFAM [peptide of SEQ ID NO: 32]
3,1.4,RWFQSFRKMWPFFAM [peptide of SEQ ID NO: 9]
4,2.2,RKFQSFRKMWPFFAM [peptide of SEQ ID NO: 12]
5,25.3,cyclo(R[dA]FQAFRKMWPFFAM) (SMILES CSCC[C@@H]1NC(=O)[C@H](C)NC(=O)[C@H](Cc2ccccc2)NC(=O)[C@H](Cc2ccccc2)NC(=O)[C@@H]2CCCN2C(=O)[C@H](Cc2c[nH]c3ccccc23)NC(=O)[C@H](CCSC)NC(=O)[C@H](CCCCN)NC(=O)[C@H](CCCNC(=N)N)NC(=O)[C@H](Cc2ccccc2)NC(=O)[C@H](C)NC(=O)[C@H](CCC(N)=O)NC(=O)[C@H](Cc2ccccc2)NC(=O)[C@@H](C)NC(=O)[C@H](CCCNC(=N)N)NC1=O) [peptide of SEQ ID NO: 54]
6,3.7,RDFQRFRKMWPFFAM [peptide of SEQ ID NO: 20]
7,4.1,RDFQSFRKMWKFFAM [peptide of SEQ ID NO: 37]
8,4.6,RDFQYFRKMWPFFAM [peptide of SEQ ID NO: 24]
9,2.4,RDFQWFRKMWPFFAM [peptide of SEQ ID NO: 22]
10,4.1,H-RAFQAFRKMWPFFAM-OH [peptide of SEQ ID NO: 42]
11,5,RDFQSFRKMWPFFAM (head-to-tail cyclic: linker L is C(=O) between the N-terminal amino group of residue 1 and the alpha carbon of residue 15) [peptide of SEQ ID NO: 49]
12,1.9,RDLQSFRKMWPFFAM [peptide of SEQ ID NO: 18]
13,21.4,cyclo(R[dA]FQAFRKMWPFFAM) (SMILES CSCC[C@@H]1NC(=O)[C@H](C)NC(=O)[C@H](Cc2ccccc2)NC(=O)[C@H](Cc2ccccc2)NC(=O)[C@@H]2CCCN2C(=O)[C@H](Cc2c[nH]c3ccccc23)NC(=O)[C@H](CCSC)NC(=O)[C@H](CCCCN)NC(=O)[C@H](CCCNC(=N)N)NC(=O)[C@H](Cc2ccccc2)NC(=O)[C@H](C)NC(=O)[C@H](CCC(N)=O)NC(=O)[C@H](Cc2ccccc2)NC(=O)[C@@H](C)NC(=O)[C@H](CCCNC(=N)N)NC1=O) [peptide of SEQ ID NO: 51]
14,1.3,RDFQSFRKMWYFFAM [peptide of SEQ ID NO: 35]
15,3,Ac-GRAFQSFRKMWAFFAM-NH2 [peptide of SEQ ID NO: 44]
16,13,cyclo(R[dA]FQAFRKMWPFFAM) (SMILES CSCC[C@@H]1NC(=O)[C@H](C)NC(=O)[C@H](Cc2ccccc2)NC(=O)[C@H](Cc2ccccc2)NC(=O)[C@@H]2CCCN2C(=O)[C@H](Cc2c[nH]c3ccccc23)NC(=O)[C@H](CCSC)NC(=O)[C@H](CCCCN)NC(=O)[C@H](CCCNC(=N)N)NC(=O)[C@H](Cc2ccccc2)NC(=O)[C@H](C)NC(=O)[C@H](CCC(N)=O)NC(=O)[C@H](Cc2ccccc2)NC(=O)[C@@H](C)NC(=O)[C@H](CCCNC(=N)N)NC1=O) [peptide of SEQ ID NO: 52]
17,1.4,RDFQSFRRMWPFFAM [peptide of SEQ ID NO: 29]
18,3.3,RDYQSFRKMWPFFAM [peptide of SEQ ID NO: 17]
19,2.2,cyclo(R[dA]FQAFRKMWPFFAM) (SMILES CSCC[C@@H]1NC(=O)[C@H](C)NC(=O)[C@H](Cc2ccccc2)NC(=O)[C@H](Cc2ccccc2)NC(=O)[C@@H]2CCCN2C(=O)[C@H](Cc2c[nH]c3ccccc23)NC(=O)[C@H](CCSC)NC(=O)[C@H](CCCCN)NC(=O)[C@H](CCCNC(=N)N)NC(=O)[C@H](Cc2ccccc2)NC(=O)[C@H](C)NC(=O)[C@H](CCC(N)=O)NC(=O)[C@H](Cc2ccccc2)NC(=O)[C@@H](C)NC(=O)[C@H](CCCNC(=N)N)NC1=O) [peptide of SEQ ID NO: 53]
20,3.3,H-R[dA]FQSFRKMWPFFAM-OH [peptide of SEQ ID NO: 6]
21,1.1,Ac-GRDFQSFRKMWAFFA[dM]-NH2 (SMILES CSCC[C@H](NC(=O)[C@H](CCCCN)NC(=O)[C@H](CCCNC(=N)N)NC(=O)[C@H](Cc1ccccc1)NC(=O)[C@H](CO)NC(=O)[C@H](CCC(N)=O)NC(=O)[C@H](Cc1ccccc1)NC(=O)[C@H](CC(=O)O)NC(=O)[C@H](CCCNC(=N)N)NC(=O)CNC(C)=O)C(=O)N[C@@H](Cc1c[nH]c2ccccc12)C(=O)N[C@@H](C)C(=O)N[C@@H](Cc1ccccc1)C(=O)N[C@@H](Cc1ccccc1)C(=O)N[C@@H](C)C(=O)N[C@H](CCSC)C(N)=O) [peptide of SEQ ID NO: 38]

# The next lines start with the binder.
row,Binder,Ratio binding Peptide/p60 (fold change)
1,RDFQSFRKMWVFFAM [peptide of SEQ ID NO: 33],1.3
2,RDFQNFRKMWPFFAM [peptide of SEQ ID NO: 21],3.2
3,Ac-GRAFQAFRKMWPFFAM-NH2 [peptide of SEQ ID NO: 41],3.7
4,Ac-GR[dA]FQ[dA]FRKMWPFFAM-NH2 (SMILES CSCC[C@H](NC(=O)[C@H](C)NC(=O)[C@H](Cc1ccccc1)NC(=O)[C@H](Cc1ccccc1)NC(=O)[C@@H]1CCCN1C(=O)[C@H](Cc1c[nH]c2ccccc12)NC(=O)[C@H](CCSC)NC(=O)[C@H](CCCCN)NC(=O)[C@H](CCCNC(=N)N)NC(=O)[C@H](Cc1ccccc1)NC(=O)[C@@H](C)NC(=O)[C@H](CCC(N)=O)NC(=O)[C@H](Cc1ccccc1)NC(=O)[C@@H](C)NC(=O)[C@H](CCCNC(=N)N)NC(=O)CNC(C)=O)C(N)=O) [peptide of SEQ ID NO: 43],4.9
5,Ac-GRDFQ[dA]FRKMWPFFAM-NH2 (SMILES CSCC[C@H](NC(=O)[C@H](C)NC(=O)[C@H](Cc1ccccc1)NC(=O)[C@H](Cc1ccccc1)NC(=O)[C@@H]1CCCN1C(=O)[C@H](Cc1c[nH]c2ccccc12)NC(=O)[C@H](CCSC)NC(=O)[C@H](CCCCN)NC(=O)[C@H](CCCNC(=N)N)NC(=O)[C@H](Cc1ccccc1)NC(=O)[C@@H](C)NC(=O)[C@H](CCC(N)=O)NC(=O)[C@H](Cc1ccccc1)NC(=O)[C@H](CC(=O)O)NC(=O)[C@H](CCCNC(=N)N)NC(=O)CNC(C)=O)C(N)=O) [peptide of SEQ ID NO: 39],3.3
6,RDFQSFRHMWPFFAM [peptide of SEQ ID NO: 28],2.6
7,Ac-GRDFQSFRKMW[dA]FFAM-NH2 (SMILES CSCC[C@H](NC(=O)[C@H](C)NC(=O)[C@H](Cc1ccccc1)NC(=O)[C@H](Cc1ccccc1)NC(=O)[C@@H](C)NC(=O)[C@H](Cc1c[nH]c2ccccc12)NC(=O)[C@H](CCSC)NC(=O)[C@H](CCCCN)NC(=O)[C@H](CCCNC(=N)N)NC(=O)[C@H](Cc1ccccc1)NC(=O)[C@H](CO)NC(=O)[C@H](CCC(N)=O)NC(=O)[C@H](Cc1ccccc1)NC(=O)[C@H](CC(=O)O)NC(=O)[C@H](CCCNC(=N)N)NC(=O)CNC(C)=O)C(N)=O) [peptide of SEQ ID NO: 40],2.2
8,Ac-GRAFQSFRKMWPFFAM-NH2 [peptide of SEQ ID NO: 13],3.2
9,RYFQSFRKMWPFFAM [peptide of SEQ ID NO: 8],1.4
10,RDFQKFRKMWPFFAM [peptide of SEQ ID NO: 25],4
11,RDFQSFRKMWRFFAM [peptide of SEQ ID NO: 31],2.8
12,RNFQSFRKMWPFFAM [peptide of SEQ ID NO: 11],1.4
13,RSFQSFRKMWPFFAM [peptide of SEQ ID NO: 7],1.4
14,RDFQEFRKMWPFFAM [peptide of SEQ ID NO: 23],1.3
